Laboratory results: paper PMC11077590, “The concerted action of SEPT9 and EPLIN modulates the adhesion and migration of human fibroblasts” (Life Science Alliance, 2024)

Key:
[1] = target: T1, His6-SEPT9 ΔNΔC (G domain, aa 295-567) (UniProt Q9UHD8 295-567); test: pull-down; GST fusion from E. coli extract held on glutathione Sepharose beads, washed with PBS, blocked with 1.5 μM BSA; purified His6-tagged protein added at 1.5 μM for 30 min in PBS with 0.1 mM Zn2+; eluted with 10 mM reduced glutathione; SDS-PAGE and Western blot; conditions: both partners purified
T1 construct: also called ΔNΔC-SEPT9; source: E. coli BL21DE3, purified (HisTrap IMAC, buffered in PBS by PD10)
T1 sequence (looked up): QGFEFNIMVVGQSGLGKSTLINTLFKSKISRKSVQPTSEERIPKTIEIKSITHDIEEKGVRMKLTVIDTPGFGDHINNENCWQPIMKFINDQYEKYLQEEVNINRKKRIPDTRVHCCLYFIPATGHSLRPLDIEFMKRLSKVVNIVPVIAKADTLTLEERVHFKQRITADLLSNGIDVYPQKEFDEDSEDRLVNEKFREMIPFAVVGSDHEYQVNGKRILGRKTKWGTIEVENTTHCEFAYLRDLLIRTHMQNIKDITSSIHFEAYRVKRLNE

[2] = target: T2, GST-EPLIN (full length, isoform alpha) (UniProt Q9UHB6-2 1-599); test: as above; conditions: both partners purified
T2 construct: EPLIN (epithelial protein lost in neoplasm, LIMA1 product), isoform alpha, full length; ORF amplified from Addgene plasmid #40928; numbers count on: isoform alpha; Vector pGEX2T; All EPLIN constructs derive from plasmid #1 (isoform alpha); also called epithelial protein lost in neoplasm; LIMA1 product
T2 sequence (Q9UHB6 161-759): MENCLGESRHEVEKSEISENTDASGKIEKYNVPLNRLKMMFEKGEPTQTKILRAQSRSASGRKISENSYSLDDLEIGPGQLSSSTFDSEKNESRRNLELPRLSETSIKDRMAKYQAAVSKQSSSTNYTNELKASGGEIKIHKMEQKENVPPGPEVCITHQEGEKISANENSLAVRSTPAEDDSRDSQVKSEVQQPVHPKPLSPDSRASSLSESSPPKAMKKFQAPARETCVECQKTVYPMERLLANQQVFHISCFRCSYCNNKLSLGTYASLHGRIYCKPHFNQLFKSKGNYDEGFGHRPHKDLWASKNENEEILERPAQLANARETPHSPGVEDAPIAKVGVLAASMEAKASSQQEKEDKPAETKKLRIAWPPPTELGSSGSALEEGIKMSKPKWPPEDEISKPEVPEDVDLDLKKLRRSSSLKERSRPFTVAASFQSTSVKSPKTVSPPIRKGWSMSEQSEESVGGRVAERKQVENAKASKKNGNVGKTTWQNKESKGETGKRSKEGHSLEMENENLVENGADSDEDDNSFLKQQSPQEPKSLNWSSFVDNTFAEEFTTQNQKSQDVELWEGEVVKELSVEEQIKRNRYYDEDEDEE

Binder	binding result [1]	binding result [2]
GST-EPLIN LIM (aa 228-288) (domain or fragment, EPLIN (LIMA1 product), isoform alpha, residues 228-288, the LIM domain; Vector pGEX2T; also called isolated LIM domain of EPLIN; plasmid #7) not shown	binds	–
His6-SEPT9 (full length, SEPT9i1) (natural protein, UniProt Q9UHD8 1-586, looked up, derived from plasmid #5 (EGFP-SEPT9, gift of E. Spiliotis); pES is an in-house pET15A-based plasmid for His6-tagged proteins; also called His-SEPT9; purified SEPT9; source: E. coli BL21DE3, purified (HisTrap IMAC, buffered in PBS by PD10)) MKKSYSGGTRTSSGRLRRLGDSSGPALKRSFEVEEVETPNSTPPRRVQTPLLRATVASSTQKFQDLGVKNSEPSARHVDSLSQRSPKASLRRVELSGPKAAEPVSRRTELSIDISSKQVENAGAIGPSRFGLKRAEVLGHKTPEPAPRRTEITIVKPQESAHRRMEPPASKVPEVPTAPATDAAPKRVEIQMPKPAEAPTAPSPAQTLENSEPAPVSQLQSRLEPKPQPPVAEATPRSQEATEAAPSCVGDMADTPRDAGLKQAPASRNEKAPVDFGYVGIDSILEQMRRKAMKQGFEFNIMVVGQSGLGKSTLINTLFKSKISRKSVQPTSEERIPKTIEIKSITHDIEEKGVRMKLTVIDTPGFGDHINNENCWQPIMKFINDQYEKYLQEEVNINRKKRIPDTRVHCCLYFIPATGHSLRPLDIEFMKRLSKVVNIVPVIAKADTLTLEERVHFKQRITADLLSNGIDVYPQKEFDEDSEDRLVNEKFREMIPFAVVGSDHEYQVNGKRILGRKTKWGTIEVENTTHCEFAYLRDLLIRTHMQNIKDITSSIHFEAYRVKRLNEGSSAMANGMEEKEPEAPEM	–	binds
